# Patent US20230348881
# How the values were obtained:
# [1] = tested on: exemplary modified PPE proproteins
# [2] = tested on: wild-type PPE proprotein as used in Example 2
# wild-type PPE proprotein as used in Example 2, sequence (chain, as listed by the source): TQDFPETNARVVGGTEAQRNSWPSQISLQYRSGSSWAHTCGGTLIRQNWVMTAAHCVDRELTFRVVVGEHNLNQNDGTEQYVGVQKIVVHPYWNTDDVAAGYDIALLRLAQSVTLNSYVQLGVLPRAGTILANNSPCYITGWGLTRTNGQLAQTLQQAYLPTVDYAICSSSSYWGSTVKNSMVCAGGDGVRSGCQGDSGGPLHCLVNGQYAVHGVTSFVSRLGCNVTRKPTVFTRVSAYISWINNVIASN
substance,measurement,setting,value
purified trypsin,"catalytic activity after protease digestion (colorimetric substrate assay), FIG. 4B",[1],catalytically-inactive after incubation with trypsin or no protease
same,"catalytic activity after protease digestion (colorimetric substrate assay), FIG. 4B",[2],the wild-type PPE protein was catalytically-active after incubation with trypsin
same,protease cleavage by SDS-PAGE and Coomassie blue staining,[2],trypsin cleaved the wild-type PPE as a control
